We go through five molecules from US20210070883A1 (AQUALUNG THERAPEUTICS, published 2021).

Where a chain is given by its changes, count along the chain named.

For experiment [1], the target named is T1, human nicotinamide phosphoribosyltransferase (NAMPT) (human, UniProt P43490 1-491).
T1 construct: Recombinant hNAMPT was bought (MBL International); In the Western blots the protein was recombinant or in HPAEC lysate; also called hNAMPT; recombinant hNAMPT
The experiment in a line: Western blot on recombinant hNAMPT and HPAEC cell lysate, exposures of 30 sec and 5 min. A general note: Immunoblotting shows a protein as a band on a membrane.

The target in another experiment is T2, mouse NAMPT (mouse, UniProt Q99KQ4 1-491, limits assumed).
T2 construct: Recombinant mNAMPT; also called mNAMPT; recombinant mouse NAMPT
T2 sequence (Q99KQ4 whole entry): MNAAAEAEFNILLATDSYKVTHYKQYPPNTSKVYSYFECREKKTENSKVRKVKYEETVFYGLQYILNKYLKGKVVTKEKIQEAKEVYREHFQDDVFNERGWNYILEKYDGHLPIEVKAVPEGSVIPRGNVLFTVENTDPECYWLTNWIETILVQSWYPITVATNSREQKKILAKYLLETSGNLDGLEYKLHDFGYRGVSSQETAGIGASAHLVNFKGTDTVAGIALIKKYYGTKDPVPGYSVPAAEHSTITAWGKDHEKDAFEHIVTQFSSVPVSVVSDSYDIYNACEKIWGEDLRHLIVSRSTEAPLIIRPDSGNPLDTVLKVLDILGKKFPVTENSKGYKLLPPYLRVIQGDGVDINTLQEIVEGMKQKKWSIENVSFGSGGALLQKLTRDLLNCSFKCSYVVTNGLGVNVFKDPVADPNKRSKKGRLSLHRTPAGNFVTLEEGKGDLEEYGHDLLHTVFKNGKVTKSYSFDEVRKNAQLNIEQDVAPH
The experiment in a line: Western blot on recombinant mNAMPT and mouse lung lysates (SB, LPS, VILI), exposures of 30 sec and 5 min.

In experiment [2] the target is T1, human nicotinamide …. The experiment in a line: told with the Pepscan epitope mapping; assay for the dimer not described.

T1 sequence (P43490 whole entry): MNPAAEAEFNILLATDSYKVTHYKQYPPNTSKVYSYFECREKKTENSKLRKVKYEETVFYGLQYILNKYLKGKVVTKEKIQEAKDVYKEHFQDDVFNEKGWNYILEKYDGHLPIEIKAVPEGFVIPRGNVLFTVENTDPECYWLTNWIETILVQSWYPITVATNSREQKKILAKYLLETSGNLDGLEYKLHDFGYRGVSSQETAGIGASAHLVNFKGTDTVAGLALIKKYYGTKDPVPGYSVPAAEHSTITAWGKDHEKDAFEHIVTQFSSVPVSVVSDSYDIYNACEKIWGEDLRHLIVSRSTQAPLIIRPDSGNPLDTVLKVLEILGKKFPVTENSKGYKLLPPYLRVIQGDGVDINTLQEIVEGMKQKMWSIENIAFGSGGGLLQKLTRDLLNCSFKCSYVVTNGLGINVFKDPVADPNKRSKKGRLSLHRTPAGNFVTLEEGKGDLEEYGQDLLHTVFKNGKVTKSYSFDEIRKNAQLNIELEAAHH

B1: murine anti-hNAMPT antibody AL-303 (antibody, V domains shown)
VH: QVQLQQPGADLVKPGASVKLSCKASGYTFTSYWMQWVKQRPGQGLEWIGEIDPSNSYTNYNQKFRGKATLTVDPSSSTAYMQLSSLTSEDSAVYYCARGGYWGQGTTLTVSS
VL: DIVMTQAAFSNPVTLGTSASISCRSSKSLLHSNGITYLYWYLQKPGQSPQLLIYQMSNLASGVPDRFSSSGSGTDFTLRISRVEAEDVGVYYCVQNLELPYTFGGGTKLEIK
notes: Murine monoclonal antibody
Turning to B1, the binding result (in experiment [1]; in the experiment with mouse NAMPT) was “binds” each time.

B2: murine anti-NAMPT antibody AL-310 (antibody, V domains shown)
VH: QVQLQQSGAESVMPGASVKLSCKASGYTFTSYWMHWVKQRPGQGLEWIGEIDPSDSYTNYNQKFKGKSTLTVDKSSSTAYMQLSSLTSEDSAVYYCAKSNYVVPWYFDVWGTGTTVTVSS
VL: B1 VL with V94A, Y101W
notes: Murine monoclonal antibody; also called AL-310mAb
Turning to B2, the binding result was “binds” in experiment [1] and “no binding” in the experiment with mouse NAMPT.

B3: murine anti-NAMPT antibody AL-304 (antibody, V domains shown)
VH: B1 VH
VL: B1 VL
B3: the binding result (in experiment [1]; with mouse NAMPT) was “binds” each time.

B4: 1076 humanized anti-hNAMPT antibody K-1076 (antibody, V domains shown)
VH: QVQLVQSGAEVKKPGASVKVSCKASGYTFTSYWMQWVRQAPGQGLEWMGEIDPSNSYTNYNQKFRGRVTMTTDTSTSTAYMELRSLRSDDTAVYYCARGGYWGQGTTVTVSS
VL: DIVMTQSPLSLPVTPGEPASISCRSSKSLLHSQGITYLYWYLQKPGQSPQLLIYQLSNRASGVPDRFSGSGSGTDFTLKISRVEAEDVGVYYCVQNLELPYTFGGGTKLEIK
notes: also called Ab-1076-HC2-LC5
In the case of B4, in experiment [2], the binding result is on record as “binds”.

B5: 1093 humanized anti-hNAMPT antibody NN-1093 (antibody, V domains shown)
VH: QVQLVQSGAEVTKPGASVKVSCKASGYTFTSYWMHWVRQAPGQGLEWVGEIDPSDSYTNYNQKFKGRVTLTRDTSTTTVYMELSSLRSEDTAVYYCAKSNYVVPWYFDVWGQGTTVTVSS
VL: EIVLTQSPATLSLSPGERATLSCRSSKSLLHSNGITYLYWYQQKPGQAPRLLIYQMSNLASGIPARFSGSGSGTDFTLTISSLEPEDFAVYYCAQNLELPWTFGGGTKLEIK
notes: Humanized from AL-310; it was detected with a goat anti-human antibody
Turning to B5, the binding result in experiment [2] is “binds”.
